{"source": "patent US20200262917A1", "about": "(Daiichi Sankyo, published 2020)", "binders": {"B1": {"name": "humanized anti-human LAG-3 antibody hLA212_H4/L2 (antibody, human IgG1, kappa, V domains shown)", "VH": "EVQLVESGGGLVQPGGSLRLSCAASGFTYRSYVMAWVRQAPGKGLEWVASISTGGGNTYYRDSVKGRFTISRDNAKNTLYLQMDSLRAEDTAVYYCAEDMSNSGYGLFDYWGQGTLVTVSS", "VL": "DIQMTQSPSSLSASVGDRVTITCKAGQNVDNNIAWYQQKPGQSPKLLIYYASNRNTGVPSRFSGSGYGTDFTLTISSLQPEDFATYYCQRISNSPYTFGQGTKVEIKR", "modifications": "defucosylated (sugar chain modification adjusted); peaks of fucose-containing H chain at or below the detection limit in mass spectrometry", "notes": "defucosylated form (human IgG1/kappa); also called hLA212 antibody H4/L2; low fucose form of hLA212_H3/L2"}}, "target": "T1, human LAG-3 (full length, expressed on cells) (human, UniProt P18627 23-525)", "T1 construct": "also called CD223; hLAG-3", "T1 sequence": "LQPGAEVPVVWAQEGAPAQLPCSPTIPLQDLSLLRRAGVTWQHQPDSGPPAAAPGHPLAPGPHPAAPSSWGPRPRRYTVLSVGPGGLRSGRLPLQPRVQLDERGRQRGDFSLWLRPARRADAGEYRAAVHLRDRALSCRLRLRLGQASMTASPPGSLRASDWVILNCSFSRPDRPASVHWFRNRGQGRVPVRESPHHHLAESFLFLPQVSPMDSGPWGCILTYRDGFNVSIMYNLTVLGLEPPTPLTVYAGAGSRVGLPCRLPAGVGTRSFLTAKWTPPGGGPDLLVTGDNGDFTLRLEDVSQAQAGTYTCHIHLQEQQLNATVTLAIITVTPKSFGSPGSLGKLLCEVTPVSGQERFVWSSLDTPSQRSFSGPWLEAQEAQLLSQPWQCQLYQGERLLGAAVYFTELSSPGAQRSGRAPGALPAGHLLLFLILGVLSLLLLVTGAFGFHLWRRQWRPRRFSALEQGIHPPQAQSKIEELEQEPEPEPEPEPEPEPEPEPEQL", "assay": "flow cytometry on human LAG-3-expressing 293T-lacZ cells", "method": "The flow cytometry was performed according to the method described in Example 1)-4, but an Anti-Human IgG PE conjugate (manufactured by Jackson ImmunoResearch Laboratories, Inc.) diluted 200-fold with a FACS buffer was used as the secondary antibody."}
{"binder": "B1", "values": [{"measurement": "binding result", "result": "binds"}]}
